In patent US20260022175A1 (Chugai, published 2026):
Substitutions are numbered along the chain they refer to.

T1: human FcγRIIa R extracellular domain (human, UniProt P12318 34-217)
T1 construct: extracellular domain; also called hFcγR IIa R
T1 sequence (looked up): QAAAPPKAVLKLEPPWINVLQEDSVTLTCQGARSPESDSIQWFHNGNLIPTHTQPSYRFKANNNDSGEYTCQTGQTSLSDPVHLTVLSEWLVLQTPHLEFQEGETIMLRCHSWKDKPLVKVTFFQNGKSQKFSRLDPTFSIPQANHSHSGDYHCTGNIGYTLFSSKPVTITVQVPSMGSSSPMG

T2: human FcγRIIa H extracellular domain (human, UniProt P12318 34-217)
T2 construct: extracellular domain; also called hFcγR IIa H
T2 sequence (looked up): T1 sequence (looked up) with R134H

T3: human FcγRIIb extracellular domain (human, UniProt P31994 43-217)
T3 construct: extracellular domain; also called hFcγR IIb
T3 sequence (looked up): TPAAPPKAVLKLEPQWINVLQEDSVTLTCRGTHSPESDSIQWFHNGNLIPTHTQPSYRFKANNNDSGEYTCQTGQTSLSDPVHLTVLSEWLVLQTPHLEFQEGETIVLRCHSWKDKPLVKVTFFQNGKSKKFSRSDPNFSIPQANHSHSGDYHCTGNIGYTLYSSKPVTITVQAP

T4: hFcγRIIaH on hFcγRIIaH-expressing Jurkat cells (human, UniProt P12318 34-317)
T4 sequence (looked up): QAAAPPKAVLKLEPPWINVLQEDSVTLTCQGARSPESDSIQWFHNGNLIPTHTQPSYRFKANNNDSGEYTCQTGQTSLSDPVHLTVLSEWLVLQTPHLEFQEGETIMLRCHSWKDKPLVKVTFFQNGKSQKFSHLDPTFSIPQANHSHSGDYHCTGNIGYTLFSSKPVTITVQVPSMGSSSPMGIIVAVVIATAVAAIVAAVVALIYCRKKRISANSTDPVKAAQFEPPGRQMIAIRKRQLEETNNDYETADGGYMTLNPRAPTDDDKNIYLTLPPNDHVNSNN

B1: H240-Kn496/L73-k0//H240-Hl516/L73-k0 (antibody, human IgG1, kappa)
heavy 1: QDQLVQSGAEVKKPGASVKVSCKASGFNIKDTYIQWVRQAPGQGLEWMGRIDPLRKQTKYREKFEGRVTITADTSTNTAYMELSSLRSEDTAVYYCVRSGREFDYWGQGTLVTVSSASTKGPSVFPLAPSSKSTSGGTAALGCLVKDYFPEPVTVSWNSGALTSGVHTFPAVLQSSGLYSLSSVVTVPSSSLGTQTYICNVNHKPSNTKVDKKVEPKSCDKTHTCPPCPAPEFQWGPMVFLFPPKPKDVLMISRTPEVTCVVVDVSDEEPEVKFNWYVDGVEVHNAKTKPREEQYNATYRVVSVLPVLHQDWLNGKEYKCKVSNKALPAPIEKTISKAKGQPREPQVCTLPPSRDELTKNQVSLWCLVKGFYPSDIAVEWESNGQPENNYKTTPPVLDSDGSFFLYSKLTVDKSRWQQGNVFSCSVMHEALHNHYTQKSLSLSP
heavy 2: QDQLVQSGAEVKKPGASVKVSCKASGFNIKDTYIQWVRQAPGQGLEWMGRIDPLRKQTKYREKFEGRVTITADTSTNTAYMELSSLRSEDTAVYYCVRSGREFDYWGQGTLVTVSSASTKGPSVFPLAPSSKSTSGGTAALGCLVKDYFPEPVTVSWNSGALTSGVHTFPAVLQSSGLYSLSSVVTVPSSSLGTQTYICNVNHKPSNTKVDKKVEPKSCDKTHTCPPCPAPELLGGPSVFLFPPKPKDVLMISRTPEVTCVVVDVSHEEPEVKFNWYVDGVEVHNAKTKPREEQYNATYRVVSVLPVLHQDWLNGKEYKCKVSNDALPAPIEETISKAKGQPREPQVYTLPPSRCELTKNQVSLSCAVKGFYPSDIAVEWESNGQPENNYKTTPPVLDSDGSFFLVSKLTVDKSRWQQGNVFSCSVMHEALHNHYTQKSLSLSP
light: DIQMTQSPSSLSASVGDRVTITCRASQDIHKYIAWYQQKPGQAPRLLIQYTSTLQPGVPSRFSGSGSGTDYTFTISSLQPEDIATYYCLQYEQLRTFGGGTKVEIKRTVAAPSVFIFPPSDEQLKSGTASVVCLLNNFYPREAKVQWKVDNALQSGNSQESVTEQDSKDSTYSLSSTLTLSKADYEKHKVYACEVTHQGLSSPVTKSFNRGEC
notes: also called EGL-ART11; ART11
B2: H240-GASDALIE/L73-k0 (antibody, human IgG1, kappa)
heavy: QDQLVQSGAEVKKPGASVKVSCKASGFNIKDTYIQWVRQAPGQGLEWMGRIDPLRKQTKYREKFEGRVTITADTSTNTAYMELSSLRSEDTAVYYCVRSGREFDYWGQGTLVTVSSASTKGPSVFPLAPSSKSTSGGTAALGCLVKDYFPEPVTVSWNSGALTSGVHTFPAVLQSSGLYSLSSVVTVPSSSLGTQTYICNVNHKPSNTKVDKKVEPKSCDKTHTCPPCPAPELLAGPDVFLFPPKPKDTLMISRTPEVTCVVVDVSHEDPEVKFNWYVDGVEVHNAKTKPREEQYNSTYRVVSVLTVLHQDWLNGKEYKCKVSNKALPLPEEKTISKAKGQPREPQVYTLPPSRDELTKNQVSLTCLVKGFYPSDIAVEWESNGQPENNYKTTPPVLDSDGSFFLYSKLTVDKSRWQQGNVFSCSVMHEALHNHYTQKSLSLSP
light: B1 light
B3: H240-Kn494/L73-k0//H240-Hl514/L73-k0 (antibody, human IgG1, kappa)
heavy 1: B1 heavy 1 with I331E
heavy 2: B1 heavy 2 with I331E
light: B1 light
notes: also called EGL-ART10; ART10

These binders were tested against T5, human FcγRIa extracellular domain (human, UniProt P12314 16-292) (assay: SPR Biacore 8K+, antibody captured, FcγR as analyte, 1:1 Langmuir model;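 also: antibodies captured on a streptavidin chip through a biotinylated anti-human Fab kappa reagent, with FcγR extracellular domains injected in pH 7.4 phosphate buffer at 25 °C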).
T5 construct: extracellular domain; also called hFcγR Ia; hFcγRIa
T5 sequence (P12314 16-292): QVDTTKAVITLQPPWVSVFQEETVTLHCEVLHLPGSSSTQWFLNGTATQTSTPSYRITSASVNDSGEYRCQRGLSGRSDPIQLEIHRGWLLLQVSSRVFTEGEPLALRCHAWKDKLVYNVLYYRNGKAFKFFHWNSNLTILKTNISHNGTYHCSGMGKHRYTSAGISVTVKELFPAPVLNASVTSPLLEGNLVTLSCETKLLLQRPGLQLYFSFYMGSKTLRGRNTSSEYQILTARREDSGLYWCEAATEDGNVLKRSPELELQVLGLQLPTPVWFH

Row | Binder | Kd [nM]
1 | B1 | 0.0381
2 | B2 | 0.00423
3 | B3 | 0.0267

These binders were tested against T6, human FcγRIIIa F extracellular domain (human, UniProt P08637 17-208) in the same assay as above.
T6 construct: extracellular domain; also called hFcγR IIIa F
T6 sequence (P08637 17-208): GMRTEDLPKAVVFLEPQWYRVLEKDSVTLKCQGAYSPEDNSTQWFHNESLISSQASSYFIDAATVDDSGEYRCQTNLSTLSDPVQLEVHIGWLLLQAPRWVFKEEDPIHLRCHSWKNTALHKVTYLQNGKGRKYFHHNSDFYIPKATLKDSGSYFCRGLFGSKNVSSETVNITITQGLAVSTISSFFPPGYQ

Row | Binder | Kd [nM]
4 | B1 | 21
5 | B2 | 29.8
6 | B3 | 2.29

Each binder was assayed against T1, human FcγRIIa R extracellular domain in the same assay as above.

Row | Binder | Kd [nM]
7 | B1 | 1270
8 | B2 | 161
9 | B3 | 1100

The binders below were run against T2, human FcγRIIa H extracellular domain in the same assay as above.

Row | Binder | Kd [nM]
10 | B1 | 231
11 | B2 | 162
12 | B3 | 420

Each binder was assayed against T7, human FcγRIIIa V extracellular domain (human, UniProt P08637 17-208) in the same assay as above.
T7 construct: extracellular domain; also called hFcγR IIIa V
T7 sequence (P08637 17-208 F176V limits assumed): as the sequence (P08637 17-208) above, with F160V counted along it

Row | Binder | Kd [nM]
13 | B1 | 3.67
14 | B2 | 15.2
15 | B3 | 0.634

The binders below were run against hFcγRIIIaV on hFcγRIIIaV-expressing Jurkat cells (human, UniProt P08637 17-254) (assay: cell-based or functional assay).
hFcγRIIIaV on hFcγRIIIaV-expressing Jurkat cells, sequence (P08637 17-254, form in doubt): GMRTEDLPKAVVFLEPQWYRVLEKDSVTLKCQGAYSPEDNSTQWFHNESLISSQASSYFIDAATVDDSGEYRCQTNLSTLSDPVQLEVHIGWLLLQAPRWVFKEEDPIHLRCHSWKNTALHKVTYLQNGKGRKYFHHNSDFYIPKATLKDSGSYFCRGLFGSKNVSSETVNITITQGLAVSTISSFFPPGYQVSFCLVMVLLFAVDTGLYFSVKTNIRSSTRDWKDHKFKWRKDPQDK

Row | Binder | EC50 value (hFcγRIIIaV ADCC Reporter Bioassay, Hepa1-6/hEREG target cells) [µg/mL]
16 | B1 | 0.000413
17 | B2 | 0.00208
18 | B3 | 0.000107

These binders were tested against T3, human FcγRIIb extracellular domain (assay: SPR Biacore 8K+; KD of G1d divided by KD of this antibody;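 also: antibodies captured on an anti-Fab-kappa streptavidin chip, soluble FcγR ectodomains flowed over, KD by steady-state fit for FcγRIIb and Langmuir kinetic model for the other receptors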).

Row | Binder | Relative value to KD between G1d and hFcgRs
19 | B1 | 0.7
20 | B2 | 3.8
21 | B3 | 1.4

These binders were tested against T5, human FcγRIa extracellular domain in the same assay as above.

Row | Binder | Relative value to KD between G1d and hFcgRs
22 | B1 | 2.4
23 | B2 | 21.3
24 | B3 | 3.4

Each binder was assayed against T6, human FcγRIIIa F extracellular domain in the same assay as above.

Row | Binder | Relative value to KD between G1d and hFcgRs
25 | B1 | 141
26 | B2 | 99.1
27 | B3 | 1290

What follows are binders tested against T1, human FcγRIIa R extracellular domain in the same assay as above.

Row | Binder | Relative value to KD between G1d and hFcgRs
28 | B1 | 1.3
29 | B2 | 10.3
30 | B3 | 1.5

What follows are binders tested against T2, human FcγRIIa H extracellular domain in the same assay as above.

Row | Binder | Relative value to KD between G1d and hFcgRs
31 | B1 | 4.9
32 | B2 | 6.9
33 | B3 | 2.7

The binders below were run against T7, human FcγRIIIa V extracellular domain in the same assay as above.

Row | Binder | Relative value to KD between G1d and hFcgRs
34 | B1 | 97.5
35 | B2 | 23.6
36 | B3 | 566

The binders below were run against T4, hFcγRIIaH on hFcγRIIaH-expressing … (assay: cell-based or functional assay).

Row | Binder | EC50 value (hFcγRIIaH ADCP Reporter Bioassay, Hepa1-6/hEREG target cells) [µg/mL]
37 | B1 | 0.0367
38 | B2 | 0.0324
39 | B3 | 0.0419

What follows are binders tested against T6, human FcγRIIIa F extracellular domain (assay: SPR Biacore 8K+; KD for FcγRIIb divided by KD for this FcγR;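 also: antibodies captured on an anti-human Fab kappa SA chip with soluble human FcγR ectodomains flowed over, FcγRIIb KD from steady-state fit, other FcγR KD from Langmuir model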).
Protocol: (§1) The interaction between the produced antibodies and human FcγRs was analyzed using Biacore 8K+ by the method below. For the running buffer, 50 mM Na-Phosphate, 150 mM NaCl, and 0.05% Tween20 (pH 7.4) was used, and measurement was performed at 25° C. The sensor chip used was a Series S SA chip (GE Healthcare) onto which CaptureSelect Human Fab-kappa Kinetics Biotin Conjugate (Thermo Fisher Scientific) was immobilized. An antibody of interest was captured onto this chip, and each FcγR diluted with the running buffer was allowed to interact with it. The chip was regenerated using 10 mM Glycine-HCl (pH 1.5), and repeatedly used to capture antibodies and perform measurement. The dissociation constants KD (mol/L) of each antibody for FcγRs were calculated using Biacore Insight Evaluation Software, with a steady state affinity model for the dissociation constant for FcγRIIb and a 1:1 Langmuir binding model for the dissociation constants for the other FcγRs (Table 48).

Row | Binder | A/I ratio (KD for FcγRIIb divided by KD for each FcγR)
40 | B1 | 694
41 | B2 | 89.3
42 | B3 | 3160

Each binder was assayed against T1, human FcγRIIa R extracellular domain in the same assay as above.
Protocol: as §1

Row | Binder | A/I ratio (KD for FcγRIIb divided by KD for each FcγR)
43 | B1 | 11.5
44 | B2 | 16.5
45 | B3 | 6.6

The binders below were run against T2, human FcγRIIa H extracellular domain in the same assay as above.
Protocol: as §1

Row | Binder | A/I ratio (KD for FcγRIIb divided by KD for each FcγR)
46 | B1 | 63.3
47 | B2 | 16.5
48 | B3 | 17.3

What follows are binders tested against T7, human FcγRIIIa V extracellular domain in the same assay as above.
Protocol: as §1

Row | Binder | A/I ratio (KD for FcγRIIb divided by KD for each FcγR)
49 | B1 | 3970
50 | B2 | 176
51 | B3 | 11400

The binders below were run against T3, human FcγRIIb extracellular domain (assay: SPR Biacore 8K+, antibody captured, FcγR as analyte, steady state affinity model).
Protocol: as §1

Row | Binder | Kd [nM]
52 | B1 | 14600
53 | B2 | 2670
54 | B3 | 7250

Each binder was assayed against T8, human C1q protein (Calbiochem) (human, UniProt P02745 23-245; P02746 28-253; P02747 29-245) (assay: ELISA: antibody coated on the plate at the varied concentration, hC1q 3 µg/mL added, detected with HRP-conjugated anti-hC1q antibody, O.D (450-690nm)).
T8 construct: bought; also called hC1q
T8 sequence (P02745 23-245 limits assumed, chain 1 of 3): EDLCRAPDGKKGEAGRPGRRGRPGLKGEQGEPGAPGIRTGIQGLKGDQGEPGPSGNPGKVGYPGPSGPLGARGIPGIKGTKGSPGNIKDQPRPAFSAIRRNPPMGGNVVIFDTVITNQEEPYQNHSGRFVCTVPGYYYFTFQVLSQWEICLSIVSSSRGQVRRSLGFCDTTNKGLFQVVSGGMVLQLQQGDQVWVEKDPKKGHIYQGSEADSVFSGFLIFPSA
T8 sequence (P02746 28-253 limits assumed, chain 2 of 3): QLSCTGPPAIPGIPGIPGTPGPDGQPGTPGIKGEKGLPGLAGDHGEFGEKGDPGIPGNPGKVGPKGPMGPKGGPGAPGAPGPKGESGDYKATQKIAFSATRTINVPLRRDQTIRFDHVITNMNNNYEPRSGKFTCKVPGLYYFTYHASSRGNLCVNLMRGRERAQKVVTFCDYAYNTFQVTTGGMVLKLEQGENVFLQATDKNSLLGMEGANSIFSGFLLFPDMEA
T8 sequence (P02747 29-245 limits assumed, chain 3 of 3): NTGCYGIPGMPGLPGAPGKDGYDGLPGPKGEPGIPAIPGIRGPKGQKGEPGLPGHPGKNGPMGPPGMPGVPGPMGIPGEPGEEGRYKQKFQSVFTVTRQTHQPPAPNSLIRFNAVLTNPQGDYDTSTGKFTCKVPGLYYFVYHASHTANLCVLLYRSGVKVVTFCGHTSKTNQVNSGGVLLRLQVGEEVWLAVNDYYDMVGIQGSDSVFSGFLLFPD
Protocol: The antigen used was a human C1q protein (hC1q).
First, a 96-well maxisorp plate (Thermo fisher) was coated at 4° C. overnight with 50 μL of solutions containing each antibody prepared at 30, 10, 3, 1, 0.3, 0.1, and 0.03 μg/mL in PBS. Each well of the plate was washed with Wash buffer to remove the antibody not bound to the plate, and then the wells were blocked with 200 μL of Blocking/dilution Buffer at room temperature for 2 hours or longer. After the Blocking/dilution Buffer was removed from each well, hC1q (Calbiochem) prepared such that the final concentration was 3 μg/mL in Blocking/dilution Buffer was added at 50 μL per well. The plate was then allowed to stand at room temperature for 1 hour to allow hC1q to bind to the antibody within each well. After washing with Wash Buffer, 50 μL of an HRP-conjugated anti-hC1q antibody (AbDSerotec) diluted with Blocking/dilution Buffer was added to each well, and the plate was incubated while standing for 1 hour. After washing with Wash Buffer, TMB single solution (Invitrogen) was added. The color development reaction of the solution in each well was stopped by addition of Stop Buffer, and then the developed color was measured by absorbance at 450 nm and 690 nm.

Row | Binder | binding result
55 | B1 | binds
56 | B2 | no binding (tested: 30 µg/mL)
57 | B3 | binds
